The values below come from patent US20260176319A1 (KALLYOPE, published 2026).

The assay concerns the target human GRP receptor (human, UniProt P30550 1-384). As to the kind of experiment: cell-based or functional assay.

Starred links: 1 amine or outer side, 2 acyl side, 3 side chain; linkers in the order of their positions; H or OH if unused. Non-standard residues stand in square brackets, D forms with d. *: point of attachment. Trp(7-F) = N[C@@H](Cc1c[nH]c2c(F)cccc12)C(=O)O; Trp(7-Me) = Cc1cccc2c(C[C@H](N)C(=O)O)c[nH]c12; C18 diacid = O=C(O)CCCCCCCCCCCCCCCCC(=O)*; γGlu = O=C(O)[C@H](CCC(=O)[*:2])N[*:1]; Palmitoyl = CCCCCCCCCCCCCCCC(=O)*; Nle = CCCC[C@H](N)C(=O)O; AEEA = NCCOCCOCC(=O)O; Sar = CNCC(=O)O Some results are limits rather than exact numbers.

Chain of human GRP receptor (P30550 whole entry): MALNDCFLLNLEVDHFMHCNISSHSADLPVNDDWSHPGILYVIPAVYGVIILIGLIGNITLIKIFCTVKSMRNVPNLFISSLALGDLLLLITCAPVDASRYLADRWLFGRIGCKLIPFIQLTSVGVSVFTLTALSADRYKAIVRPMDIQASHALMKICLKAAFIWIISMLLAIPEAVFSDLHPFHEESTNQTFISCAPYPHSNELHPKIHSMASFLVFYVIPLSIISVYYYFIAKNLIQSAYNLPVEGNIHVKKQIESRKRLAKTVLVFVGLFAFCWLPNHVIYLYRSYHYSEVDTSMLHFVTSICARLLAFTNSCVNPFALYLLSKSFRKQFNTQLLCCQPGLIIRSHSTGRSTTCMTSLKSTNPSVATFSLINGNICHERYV

B1: Peptide 115 (peptide)
peptide: {C18 diacid}-[γGlu][AEEA][AEEA]GNHW[dA]V[dA]HL[Nle][Sar]-NH2
SMILES: CCCC[C@H](NC(=O)[C@H](CC(C)C)NC(=O)[C@H](Cc1c[nH]cn1)NC(=O)[C@@H](C)NC(=O)[C@@H](NC(=O)[C@@H](C)NC(=O)[C@H](Cc1c[nH]c2ccccc12)NC(=O)[C@H](Cc1c[nH]cn1)NC(=O)[C@H](CC(N)=O)NC(=O)CNC(=O)COCCOCCNC(=O)COCCOCCNC(=O)CC[C@H](NC(=O)CCCCCCCCCCCCCCCCC(=O)O)C(=O)O)C(C)C)C(=O)N(C)CC(N)=O
In the case of B1, the “hIP1 GRPR EC50” value is greater than 10000 nM.

B2: Peptide 118 (peptide)
peptide: {C18 diacid}-[γGlu][AEEA][AEEA][AEEA][AEEA]GRHWAV[dA]HL[Nle]-NH2
SMILES: CCCC[C@H](NC(=O)[C@H](CC(C)C)NC(=O)[C@H](Cc1c[nH]cn1)NC(=O)[C@@H](C)NC(=O)[C@@H](NC(=O)[C@H](C)NC(=O)[C@H](Cc1c[nH]c2ccccc12)NC(=O)[C@H](Cc1c[nH]cn1)NC(=O)[C@H](CCCNC(=N)N)NC(=O)CNC(=O)COCCOCCNC(=O)COCCOCCNC(=O)COCCOCCNC(=O)COCCOCCNC(=O)CC[C@H](NC(=O)CCCCCCCCCCCCCCCCC(=O)O)C(=O)O)C(C)C)C(N)=O
For the molecule B2, the “hIP1 GRPR EC50” value stood at 8.02 nM.
Then EXXGNHWAVGHLM (Palmitoyl-D-γGlu-OEG-OEG-Gly-Asn-His-Trp-Ala-Val-Gly-His-Leu-Met-NH2) [Peptide 8], with 1.7 nM.

B3: Peptide 116 (peptide)
peptide: {C18 diacid}-[γGlu][AEEA][AEEA]GRHHAV[dA]HL[Nle]-NH2
SMILES: CCCC[C@H](NC(=O)[C@H](CC(C)C)NC(=O)[C@H](Cc1c[nH]cn1)NC(=O)[C@@H](C)NC(=O)[C@@H](NC(=O)[C@H](C)NC(=O)[C@H](Cc1c[nH]cn1)NC(=O)[C@H](Cc1c[nH]cn1)NC(=O)[C@H](CCCNC(=N)N)NC(=O)CNC(=O)COCCOCCNC(=O)COCCOCCNC(=O)CC[C@H](NC(=O)CCCCCCCCCCCCCCCCC(=O)O)C(=O)O)C(C)C)C(N)=O
Consider B3, for which the “hIP1 GRPR EC50” value was greater than 10000 nM.

B4: Peptide 107 (peptide)
peptide: {C18 diacid}-[γGlu][AEEA][AEEA]GNHHAV[dA]HL[Nle]-NH2
SMILES: CCCC[C@H](NC(=O)[C@H](CC(C)C)NC(=O)[C@H](Cc1c[nH]cn1)NC(=O)[C@@H](C)NC(=O)[C@@H](NC(=O)[C@H](C)NC(=O)[C@H](Cc1c[nH]cn1)NC(=O)[C@H](Cc1c[nH]cn1)NC(=O)[C@H](CC(N)=O)NC(=O)CNC(=O)COCCOCCNC(=O)COCCOCCNC(=O)CC[C@H](NC(=O)CCCCCCCCCCCCCCCCC(=O)O)C(=O)O)C(C)C)C(N)=O
Take B4: the “hIP1 GRPR EC50” value is greater than 10000 nM.

B5: Peptide 109 (peptide)
peptide: {C18 diacid}-[γGlu][AEEA][AEEA][AEEA][AEEA]GRH[Trp(7-F)]AV[dA]HL[Nle]-NH2
SMILES: CCCC[C@H](NC(=O)[C@H](CC(C)C)NC(=O)[C@H](Cc1c[nH]cn1)NC(=O)[C@@H](C)NC(=O)[C@@H](NC(=O)[C@H](C)NC(=O)[C@H](Cc1c[nH]c2c(F)cccc12)NC(=O)[C@H](Cc1c[nH]cn1)NC(=O)[C@H](CCCNC(=N)N)NC(=O)CNC(=O)COCCOCCNC(=O)COCCOCCNC(=O)COCCOCCNC(=O)COCCOCCNC(=O)CC[C@H](NC(=O)CCCCCCCCCCCCCCCCC(=O)O)C(=O)O)C(C)C)C(N)=O
As to B5, the “hIP1 GRPR EC50” value is 18.7 nM.

B6: Peptide 108 (peptide)
peptide: {C18 diacid}-[γGlu][AEEA][AEEA]GNHRAV[dA]HL[Nle]-NH2
SMILES: CCCC[C@H](NC(=O)[C@H](CC(C)C)NC(=O)[C@H](Cc1c[nH]cn1)NC(=O)[C@@H](C)NC(=O)[C@@H](NC(=O)[C@H](C)NC(=O)[C@H](CCCNC(=N)N)NC(=O)[C@H](Cc1c[nH]cn1)NC(=O)[C@H](CC(N)=O)NC(=O)CNC(=O)COCCOCCNC(=O)COCCOCCNC(=O)CC[C@H](NC(=O)CCCCCCCCCCCCCCCCC(=O)O)C(=O)O)C(C)C)C(N)=O
B6: the “hIP1 GRPR EC50” value is greater than 10000 nM.

B7: Peptide 114 (peptide)
peptide: {C18 diacid}-[γGlu][AEEA][AEEA]GNHWAV[dA]HL[Nle]R-NH2
SMILES: CCCC[C@H](NC(=O)[C@H](CC(C)C)NC(=O)[C@H](Cc1c[nH]cn1)NC(=O)[C@@H](C)NC(=O)[C@@H](NC(=O)[C@H](C)NC(=O)[C@H](Cc1c[nH]c2ccccc12)NC(=O)[C@H](Cc1c[nH]cn1)NC(=O)[C@H](CC(N)=O)NC(=O)CNC(=O)COCCOCCNC(=O)COCCOCCNC(=O)CC[C@H](NC(=O)CCCCCCCCCCCCCCCCC(=O)O)C(=O)O)C(C)C)C(=O)N[C@@H](CCCNC(=N)N)C(N)=O
As to B7, the “hIP1 GRPR EC50” value was greater than 10000 nM.

B8: Peptide 110 (peptide)
peptide: {C18 diacid}-[γGlu][AEEA][AEEA][AEEA][AEEA]GNH[Trp(7-F)]AV[dA]HL[Nle]-NH2
SMILES: CCCC[C@H](NC(=O)[C@H](CC(C)C)NC(=O)[C@H](Cc1c[nH]cn1)NC(=O)[C@@H](C)NC(=O)[C@@H](NC(=O)[C@H](C)NC(=O)[C@H](Cc1c[nH]c2c(F)cccc12)NC(=O)[C@H](Cc1c[nH]cn1)NC(=O)[C@H](CC(N)=O)NC(=O)CNC(=O)COCCOCCNC(=O)COCCOCCNC(=O)COCCOCCNC(=O)COCCOCCNC(=O)CC[C@H](NC(=O)CCCCCCCCCCCCCCCCC(=O)O)C(=O)O)C(C)C)C(N)=O
Turning to B8, the “hIP1 GRPR EC50” value was 12.4 nM.

B9: Peptide 117 (peptide)
peptide: {C18 diacid}-[γGlu][AEEA][AEEA][AEEA][AEEA]GRH[Trp(7-Me)]AV[dA]HL[Nle]-NH2
SMILES: CCCC[C@H](NC(=O)[C@H](CC(C)C)NC(=O)[C@H](Cc1c[nH]cn1)NC(=O)[C@@H](C)NC(=O)[C@@H](NC(=O)[C@H](C)NC(=O)[C@H](Cc1c[nH]c2c(C)cccc12)NC(=O)[C@H](Cc1c[nH]cn1)NC(=O)[C@H](CCCNC(=N)N)NC(=O)CNC(=O)COCCOCCNC(=O)COCCOCCNC(=O)COCCOCCNC(=O)COCCOCCNC(=O)CC[C@H](NC(=O)CCCCCCCCCCCCCCCCC(=O)O)C(=O)O)C(C)C)C(N)=O
Take B9: the “hIP1 GRPR EC50” value came out at 16.5 nM.

B10: Peptide 112 (peptide)
peptide: Palmitoyl-[γGlu][AEEA][AEEA]GNH[Trp(7-Me)]AV[dA]HL[Nle][Sar]-NH2
SMILES: CCCCCCCCCCCCCCCC(=O)N[C@@H](CCC(=O)NCCOCCOCC(=O)NCCOCCOCC(=O)NCC(=O)N[C@@H](CC(N)=O)C(=O)N[C@@H](Cc1c[nH]cn1)C(=O)N[C@@H](Cc1c[nH]c2c(C)cccc12)C(=O)N[C@@H](C)C(=O)N[C@H](C(=O)N[C@H](C)C(=O)N[C@@H](Cc1c[nH]cn1)C(=O)N[C@@H](CC(C)C)C(=O)N[C@@H](CCCC)C(=O)N(C)CC(N)=O)C(C)C)C(=O)O
As for B10, the “hIP1 GRPR EC50” value was greater than 10000 nM.
